Where a chain is given by its changes, count along the chain named.
T1: human CEACAM5 (human, UniProt P06731 35-685)
T1 construct: whole, on cells; Target on MKN-45 (DSMZ ACC409) and LS180 (ATCC CL-187) cells; also called carcinoembryonic antigen-related cell adhesion molecule 5; CD66e
T1 sequence (looked up): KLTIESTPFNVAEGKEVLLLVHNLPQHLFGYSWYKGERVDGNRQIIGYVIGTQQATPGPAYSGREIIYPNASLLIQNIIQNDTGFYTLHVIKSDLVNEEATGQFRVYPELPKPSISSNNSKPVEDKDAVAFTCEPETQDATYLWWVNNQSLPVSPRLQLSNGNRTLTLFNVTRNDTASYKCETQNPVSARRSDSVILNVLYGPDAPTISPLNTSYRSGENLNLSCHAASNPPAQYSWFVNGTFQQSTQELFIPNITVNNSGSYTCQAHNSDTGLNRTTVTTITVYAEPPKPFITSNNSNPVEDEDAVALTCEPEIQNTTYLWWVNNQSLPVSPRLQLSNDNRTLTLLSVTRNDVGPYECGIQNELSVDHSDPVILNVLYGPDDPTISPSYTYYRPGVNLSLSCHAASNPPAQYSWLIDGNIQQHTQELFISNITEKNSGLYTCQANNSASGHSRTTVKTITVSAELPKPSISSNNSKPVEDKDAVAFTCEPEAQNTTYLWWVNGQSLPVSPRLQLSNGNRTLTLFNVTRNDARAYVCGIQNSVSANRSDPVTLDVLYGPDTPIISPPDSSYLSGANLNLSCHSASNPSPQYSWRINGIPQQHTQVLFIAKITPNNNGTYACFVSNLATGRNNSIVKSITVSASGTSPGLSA

B1: T84.66-LCHA (P1AH2338) (antibody, V domains shown)
VH: QVQLVQSGAEVKKPGSSVKVSCKASGFNIKDTYMHWVRQAPGQGLEWMGRIDPANGNSKYVPKFQGRVTITADTSTSTAYMELSSLRSEDTAVYYCAPFGYYVSDYAMAYWGQGTLVTVSS
VL: EIVLTQSPATLSLSPGERATLSCRAGESVDIFGVGFLHWYQQKPGQAPRLLIYRASNRATGIPARFSGSGSGTDFTLTISSLEPEDFAVYYCQQTNEDPYTFGQGTKLEIK
notes: also called humanized variant 1
B2: P1AH2369 (antibody, V domains shown)
VH: B1 VH
VL: B1 VL with V34N, G35S
B3: P1AH2368 (antibody, V domains shown)
VH: B1 VH
VL: B1 VL with I31S, F32Y
B4: P1AH2349 (antibody, human IgG1, V domains shown)
VH: EVQLVESGGGLVQPGGSLRLSCAASGFNIKDTYMHWVRQAPGKGLEWVGRIDPANGNSKYADSVKGRFTISADTSKNTAYLQMNSLRAEDTAVYYCAPFGYYVSDYAMAYWGQGTTVTVSS
VL: B1 VL
notes: also called rehumanized improved expression variant
B5: P1AH2359 (antibody, human IgG1, name in Kabat numbering, V domains shown)
VH: B1 VH with E82Q
VL: B1 VL
B6: P1AH2364 (antibody, human IgG1, name in Kabat numbering, V domains shown)
VH: B1 VH
VL: B1 VL with A55G
B7: P1AH2361 (antibody, human IgG1, name in Kabat numbering, V domains shown)
VH: B1 VH with K30T
VL: B1 VL
B8: P1AH2373 (antibody, human IgG1, name in Kabat numbering, V domains shown)
VH: B1 VH
VL: B1 VL with D98N
B9: P1AH2366 (antibody, human IgG1, name in Kabat numbering, V domains shown)
VH: B1 VH
VL: B1 VL with F32Y
notes: Kabat positions
B10: P1AH2370 (antibody, human IgG1, name in Kabat numbering, V domains shown)
VH: B1 VH
VL: B1 VL with D30S

Each binder was assayed against T1, human CEACAM5 (assay: FACS on MKN-45 cells expressing human CEACAM5).
Procedure: The cellular binding assay was performed as follows.
(§1) 10 μl of a 1×10⁴ MKN-45 (DSMZ ACC409) cell suspension in assay buffer was seeded in all Wells of a 384 well polypropylene plate (Weidmann #23490-101). Then 10 μl of antibodies diluted in assay buffer (double concentrated), at a start concentration of 100 μg/ml, serially diluted 1:4 were added to the plate. After 90 minutes incubation at 4° C., 60 μl assay buffer was added followed by a centrifuge step (330×g, 5 min) and an aspirating step (BioTek washer 405H) where 60 μl of supernatant were discarded. 20 μl of detection antibody (Alpaca anti rabbit IgG Chromotek #srbAF647-1) diluted in assay buffer (double concentrated) to a final concentration of 0.5 μg/ml was added to all Wells followed by 1 hour incubation time at room temperature. The cells were then subjected to two washing steps with 40 μl and 60 μl assay buffer as described above and then resuspended in 20 μl assay buffer. Cell binding was measured on an iQue Screener Plus high throughput FACS device from Sartorius/Intellicyt.
For B1, the EC50 was 5.3 nM.
B2 was tested, and the EC50 was 5.5 nM.
For B3, the EC50 was 2.5 nM.
B4 was tested, and the EC50 was 7.2 nM.
B5 showed an EC50 of 12.9 nM.
Work on B6 yielded an EC50 of 1.9 nM.
In the case of B7, the EC50 is reported as 21.9 nM.
B8 gave an EC50 of 2.5 nM.
B9 showed an EC50 of 2.7 nM.
B10 was tested, and the EC50 was 3.1 nM.

Biological target: T1, human CEACAM5
Experiment: FACS on MKN-45 cells expressing human CEACAM5
Remark: another data set of the same source
Procedure: as §1
With B1 the EC50 was 0.989 µg/mL.
In the case of B4, the EC50 is reported as 1.11 µg/mL.

Reference: patent publication US20260071002A1 (Hoffmann-La Roche, published 2026)
